{
  "source": "patent US20220307159",
  "key": {"[1]": {"target": "eIF3 complex (detected via eIF3b) (Homo sapiens) (UniProt Q14152+P55884+Q99613+O15371+P60228+O00303+O75821+O15372+Q13347+O75822+Q9UBQ5+Q9Y262+Q7L2H7)", "test": "pulldown", "conditions": "RIP-chip co-IP with anti-eIF3b, 4 C"}, "LIN28A": {"target": "T1, LIN28A (UniProt Q9H9Z2)", "T1 sequence": "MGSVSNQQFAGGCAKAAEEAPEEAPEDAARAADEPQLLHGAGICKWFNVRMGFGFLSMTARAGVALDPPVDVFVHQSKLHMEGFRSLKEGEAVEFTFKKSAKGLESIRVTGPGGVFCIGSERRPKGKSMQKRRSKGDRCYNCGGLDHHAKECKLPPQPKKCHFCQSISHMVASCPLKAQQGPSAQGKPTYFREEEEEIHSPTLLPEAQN", "test": "pulldown", "conditions": "RIP-chip microarray, TALON beads, 4 C"}},
  "data": [
    {"substance": "HIV_2014_Siegfried_nucs_1_753_2_Multi (HIV-1 gag IRES)", "values": [
      {"measurement": "binding signal (top % (rank 568))", "setting": "[1]", "result": 6.58}
    ]},
    {"substance": "HIV_2014_Siegfried_nucs_1_753_9 (HIV-1 gag IRES)", "values": [
      {"measurement": "binding signal (top % (rank 17))", "setting": "[1]", "result": 0.2}
    ]},
    {"substance": "hsa-mir-532", "values": [
      {"measurement": "binding signal (Cy5 intensity (rank 10))", "setting": "LIN28A", "result": 7.39}
    ]},
    {"substance": "pre-hsa-mir-940", "values": [
      {"measurement": "binding signal (Cy5 intensity (rank 6))", "setting": "LIN28A", "result": 7.5}
    ]}
  ]
}
